Source: the DeepSol protein solubility set

Assay: soluble on expression in E. coli; label from the status in PepcDB or PDB records

Soluble on expression in E. coli, not soluble:
GMEPTRKRKSAGGKPKGKGGWGDRKSGGWRGDHKPSKEGFGGKTRGEGFKKEGFKRDGFKKTGEGFKGKRKAGDSFAGKGERRYKDR
GNLSFLATSDGASLAYRLDGAAEKPLLALSNSIGTTLHMWDAQLPALTRHFRVLRYDARGHGASSVPPGPYTLARLGEDVLELLDALEVRRAHFLGLSLGGIVGQWLALHAPQRIERLVLANTSAWLGPAAQWDERIAAVLQAEDMSETAAGFLGNWFPPALLERAEPVVERFRAMLMATNRHGLAGSFAAVRDTDLRAQLARIERPTLVIAGAYDTVTAASHGELIAASIAGARLVTLPAVHLSNVEFPQAFEGAVLSFLGA
GPGSMAVQPGKVLAEQFSRQGIQYEESTDVLWCSLCTKADSLEIISRATVEDVLEHCRLRQHLLLMEKETVKEHYCPVEINGRSFLLDHNCVYPSTMFGKGRMLLDDTLGCVMTEDVCGGVKLLPRHKYTVVEIVIPPAGTPIPKDPSYYVERPVRSRKCHEKFDSWIQVHNSSVEGESALMKRRRIAFSQLNM
GPGSMDFVPTVAVIRANPVEGVRYAYTSTVSDNRYDSFVEDAVMQYSGNVNEADGSDRASPRFSGRSVVNLQRAILQCGDIRVSDKQDAEPVGVWRCLAGAILAACCFLRSYSTCPSESFDECGAEVCDAFVPAGVAMIIFSGVCDTRPLSFSEECPFSAAVTAATRLRTAVHVFGPAVVSSALGLRLQALANTTGGIWAPQFALSHVGYLMELAVRRNGQREMDSATNSRRQRELLVERYVVPPACLPQDPAQTGVASGENVSYLAWLCSACLATLVRHPHEEVGAIRMCPYCAASK
GPGSMGTMKDKNKCTFRYFEVLPIDHEPEYQNGYVCDICFMEYSEGPFFHCSKSGKDVCLRCGGKMGLTPFTALVSKVMRPTVYWSESESSRAIALCYQIHRDILGCHFIDGANLLISTRDDLPSYFIDSNSCIEKSIVLSRSDIERRFPWAGEVAEVMGVNAVSFHETSACNDQSRLCFLSSFRVEGAFIEFRFSDGFCELVHCENGTIVAIRDSAVLSCFLMGLPVRWGRSLPKAASSVLEWYLKGGQR

Soluble on expression in E. coli, soluble:
GMEGSLSRGVEIMKLRELVARSRSIRRFDEHVAVNDATLRDLVELVCYTPSAANRQLLRFLPVTGADMSDKVFPCLKWAGYLEDWPGPEPGERPAAALVMLCRNEDLPGAACDSGIAAQTIMLGAAEKELGGCIVAAIDRERLMASLGIPDAWTVLLVIALGKPAETVVIDQIKPGDDIRYWRDKHGIHHVPKRQVDELLVTAEQLRERG
GMHLKEKITTIIQGQRTGVLSTVRNDKPHSAFMMFFHEDFVLYVATDRQSKKITDIENNPNVHVLLGREGKKLDEDYIEVEGLASIEEDSTLKNKFWNNSLKRWLLRPEDPNYVLIKINPDTIYYIDGAGTTEPEFLRL
GMHSNINTLIANHRAGHALDQAFYTDAEVFQTDLQEIFYKEWLFAIPACELDKPGSYVTHQVGNYNVIIVRGADNVIRAFHNACRHRGSVICKAKKGNNPKLVCPYHQWTYELDGRLLWARDMGPDFEPSRHGLKTVHCRELAGLIYICLADEAPDFERFAEVARPYLEVHDLSNAKVAHESSIVERGNWKLVWENNRECYHCGGNHPALCRTFPDDPSVTGIEGGETPSNLQAHFDRCEQAGMPSGFHLSGDGQFRVARMPLKEGAESYTMDGKTAVRRWLGRAAFADAGSLLKFHYPTTWNHFLSDHSIVFRVTPISPTETEVTTKWLVHKDAVEGVDYDLQRLTEVWIATNDEDREVVEFNQMGINSPAYEPGPYSPTQESGVLQFVEWYLSTLKRNSGPHAVAAE
GMKIDGETRSARKDREIIQAATAAFISKGYDGTSMEEIATKAGASKQTVYKHFTDKETLFGEVVLSTASQVNDIIESVTTLLSEAIFMEGGLQQLARRLIAVLMDEELLKLRRLIIANADRMPQLGRAWYEKGFERMLASTASCFQKLTNRGLIQTGDPYLAASHLFGMLLWIPMNEAMFTGSNRRSKAELERHADASVEAFLAVYGVQPK
GMKQPNYYQDVKQFHQTFHHPGADQPTAIPLDRGVKRATWTAEEAVVEFLHQSSQNETEFLAAIETFKAGLDQAVKKSLKETYPVTEVERLVGQGDALTDALYFIMGSFVEAGLEPGPLFEIVQQANMAKLGPDGQPIFRESDQKVMKPDGWLPPEPQLEAEVVRQMKEKA
GMLTGKHVVIIGGDARQLEIIRKLSTFDAKISLVGFDQLDDGFIGVTKMRIDEVDWNTVDAILLPISGTNEAGKVDTIFSNESIVLTEEMIEKTPNHCVVYSGISNTYLNQCMKKTNRTLVKLMERDDIAIYNSIPTAEGTIMMAIQHTDFTIHGANVAVLGLGRVGMSVARKFAALGAKVKVGARESDLLARIAEMGMEPFHISKAAQELRDVDVCINTIPALVVTANVLAEMPSHTFVIDLASKPGGTDFRYAEKRGIKALLVPGLPGIVAPKTAGRILADVLVKLLAEPS
GMQIESFKSLLPKYKCIFFDAFGVLKTYNGLLPGIENTFDYLKAQGQDYYIVTNDASRSPEQLADSYHKLGLFSITADKIISSGMITKEYIDLKVDGGIVAYLGTANSANYLVSDGIKMLPVSAIDDSNIGEVNALVLLDDEGFNWFHDLNKTVNLLRKRTIPAIVANTDNTYPLTKTDVAIAIGGVATMIESILGRRFIRFGKPDSQMFMFAYDMLRQKMEISKREILMVGDTLHTDILGGNKFGLDTALVLTGNTRIDDAETKIKSTGIVPTHICESAVIEL
GMQTINATEIRNNFSYYIDTVVRDKPIAVKRNRDVLLFFSEQIIKDLLQDLKIHAELSKEDGIIIGTIDGFDLVVSGESEQEVIQKLAEDLLEYAQDYMNDFKLFYNAPNRKTHYPYILKVLLSSNIDEVKGYIYAEMV
GMSAKDVFHQVVKIALEKDGWQITNDPLTISVGGVNLSIDLGAEKLIAAEREGEKIAVEVKSFLERSSAISEFHTALGQFINYRGALRRRQPERVLYLAVPLTTYKTFFQLDFPKEMIAENQVKMLIYDVEQEVIFQWIN
GMSDEQHDSVWPPPGLDFSKPTIARVYDALLGGKDNFEADRALADYACKHIPGLKESAIENRKVLVRGVRFLAGEAGISQFLDLGSGLPTVQNTHEVAQSVNPDARVVYVDIDPMVLTHGRALLAKDPNTAVFTADVRDPEYILNHPDVRRMIDFSRPAAIMLVGMLHYLSPDVVDRVVGAYRDALAPGSYLFMTSLVDTGLPAQQKLARITRENLGEGWARTPEEIERQFGDFELVEPGVVYTALWRPDEPVDPDNLSPGEQLGMAGIGRKKA
GMSSDVQKGDNLETPGARDLLLQTASNIMREGDVVDISLSELSLRSGLNSALVKYYFGNKAGLLKALLDRDMENIVKSVDALLAKDDMSPEAKLRRHISKCIDTYYDYPYLNRLLMRLVRDSDEAEAKRIADQYLLPLHRAYNRFIGEGVKAGVFRPINPQLFYFTVTGAADRFFSARLVLKHCFDQDTLTEQLRDSYREHTVDFIMAGILAH
GMSSNLHGIAIGIERSQDDFYLAFKAVGKLTHEDYEQMTPLLESALAGIKTPEIVALIDITELDGLSLHAAWDDLKLGLKHGKEFKRVAIIGQGELQEWATRVANWFTPGEFKFFEDKRDALDWLC
GMSVAAEVAQVAQSAIDDFNAAYGLCLDDDRLEQWPTLFVDDCLYQVIARENVDNGLPAAVMYCDSKGMLADRVVALRKANVFPEHFNRHLIGRAVITGVEGDQVSAEASYVVFQTRNDGETRIYNAGKYVDRFDLSGGTVRLKSRTCIYDTLRIATLLATPI
GMSVVDPSLIERIIRDDVRAMGAYHVPDSHGLVKLDAMENPYRLPPALRSELAARLGEVALNRYPVPSSEALRAKLKEVMQVPAGMEVLLGNGSDEIISMLALAAARPGAKVMAPVPGFVMYAMSAQFAGLEFVGVPLRADFTLDRGAMLAAMAEHQPAIVYLAYPNNPTGNLFDAADMEAIVRAAQGSVCRSLVVVDEAYQPFAQESWMSRLTDFGNLLVMRTVSKLGLAGIRLGYVAGDPQWLEQLDKVRPPYNVNVLTEATALFALEHVAVLDEQAAQLRAERSRVAEGMAAHGGVTVFPSAANFLLARVPDAAQTFDRLLARKVLIKNVSKMHPLLANCLRVTVSTPEENAQFLEAFAASLQD
GMSYQNANYSAFYVSEPFSESNLGANSTHDFVYYNMLRMWKGEDNSFPFNDAHDKTYNVRDGSDWEKTLKPRLHTRLDNSKNIILFLSSITANSRALREEMNYGIGTKGLPVIVIYPDYDKKSDIVDSNGNFKKQIKDLWDKLPAFRDNMSSVATLHIPCTKSVIISALNNEDFMVNTMADAEKYYYKP
GMTESDRDYIQSIERGFAVLLAFDAQRPNPTLAELATEAGLSRPAVRRILLTLQKLGYVAGSGGRWSLTPRVLSIGQHYSESHALIEAAMPRLLEVAEKTQESASLGVLDGADVVYAARVPVRRIMSINVSVGTRVPAYATSMGRALLAWAPADVVERVVAESTFQKLGPETIGTAAELERELAKVREQGFALTSEELEKGLISLAAPVHDAGGTVVGVVACSTSSARNTPAQFREQAVPCVLAAAAALSADMGFAG
GMTRQRIAIDMDEVLADTLGAVVKAVNERADLNIKMESLNGKKLKHMIPEHEGLVMDILKEPGFFRNLDVMPHAQEVVKQLNEHYDIYIATAAMDVPTSFHDKYEWLLEYFPFLDPQHFVFCGRKNIILADYLIDDNPKQLEIFEGKSIMFTASHNVYEHRFERVSGWRDVKNYFNSIEK
GMTSNGQQGKPNLPEKDNLPRELGTQRINSPIARMGMFGAKTTGDTSGYGRLRVYRHVPAAAQRPYSDPSDPRTAYFDEVADALERSLKEIGTPYDTAISRVVVDRGEITFHVQREHLLDVATRLRDDPALRFELCLGVTGVHYPEDEGNELHAVYALRSITHNYEIRLEVSCPDSDPHIPSIVSVYPTNDWHEREAWDFFGIIFDGHPALTR
GMTTSEHIAALTALVETYVMAMTRGDRPALERIFFGKASEVGHYEGELLWNSRDAFIAMCEDAADAETDPFWAISSVSVQGDIAMLHVENDWAGMRFDDFLTVLLHEGSWRIVSKVYRIR
GMWSYDKITDYLMNNLGEKRYKHSLGVMDTAVRLAGIYNEDTEKARIAGLVHDCAKKLPGEKIIEICTNEGYELGDEDIRNSYLLHGLAGRILAKKVIGIDDEDVLNAIEFHTTGRPNMSLLEKIIYIADYIEPGREFKGVDELRKAADEDLNKALLMSFDNTIKFVIDKGGFLHHNTIEARNYLISRKG
GPGSGPVFVQEPSHVMFPLDSEEKKVKLSCEVKGNPKPHIRWKLNGTDVDIGMDFRYSVVDGSLLINNPNKTQDAGTYQCIATNSFGTIVSREAKLQFAYLENFKTRTRSTVSVRRGQGMVLLCGPPPHSGELSYAWIFNEYPSYQDNRRFVSQETGNLYIAKVEKSDVGNYTCVVTNTVTNHKVLGPPTPLILRNDGVMGEYEPKIEVQFPETVPAEKGTTVKLECFALGNPVPTILWRRADGKPIARKARRHKSNGILEIPNFQQEDAGSYECVAENSRGKNVAKGQLTFYAQPNWVQIINDIHVAMEESVFWECKANGRPKPTYRWLKNGDPLLTRDRIQIEQGTLNITIVNLSDAGMYQCVAENKHGVIFSSAELSVIAE
GPGSMHEDGQFLRAFLLRVLANDMQRMLATNTCATYFRNIPLEPEYDASGNRTNTPENVVMEKRLRVMDDISKLLRTYVERAEYAANKSKDINRRIYFTAEQIETGDYGALIGPRGLVHQQLEKETNCHIVLVGRGITNPLKDTNPNAASMALEDPHVRITATTEEDLQTAAERIEWILSDEPEAVEFRENNRRRMAQVDGRYDPRTWMTAAEKRKKAAAEKAAAAGGAAAGEDETKAEKGRKREREEAPVEEEDTELNEFLEDL
